Source: the supplement of paper PMC9112550, “Optimization of the antimicrobial peptide Bac7 by deep mutational scanning” (BMC Biology, 2022)

These sequences were tested on Escherichia coli TOP10 (assay: shrunken log2 fold change of peptide-encoding DNA abundance (4.5 h post-induction vs induction); higher = less antimicrobial activity (less host growth inhibition)). Conditions: time post-induction: 4.5 h; library: site-saturation at positions 5, 18, 19, 20.
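Also: peptides expressed intracellularly from a pBAD plasmid library in pooled LB shake-flask culture, induced with 0.3% L-arabinose, DNA abundance read by NGS, three biological replicates, DESeq2 with apeglm shrinkage.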

Question: For RRIRDRPPRLPRPRPRPGDRPRP, which “shrunken log2 fold change” value is on record?
Answer: -0.00192

Question: With RRIRDRPPRLPRPRPRPGEFPRP as the sequence, how does the “shrunken log2 fold change” value read?
Answer: -0.117

Question: RRIRDRPPRLPRPRPRPGEGPRP was tested. Which “shrunken log2 fold change” value did it give?
Answer: 1.41

Question: How did the “shrunken log2 fold change” value turn out when RRIRDRPPRLPRPRPRPGEIPRP was run?
Answer: 0.501

Question: For RRIRDRPPRLPRPRPRPGFYPRP, which “shrunken log2 fold change” value is on record?
Answer: 0.00794

Question: Which “shrunken log2 fold change” value does the source give for RRIRDRPPRLPRPRPRPGGRPRP here?
Answer: 0.569

Question: For RRIRDRPPRLPRPRPRPGKSPRP, which “shrunken log2 fold change” value is on record?
Answer: 0.0637

Question: RRIRDRPPRLPRPRPRPGNEPRP was tested. Which “shrunken log2 fold change” value did it give?
Answer: -0.159

Question: For RRIRDRPPRLPRPRPRPGNPPRP, which “shrunken log2 fold change” value is on record?
Answer: -5.31e-05

Question: RRIRDRPPRLPRPRPRPGQAPRP was tested. Which “shrunken log2 fold change” value did it give?
Answer: 0.0989

Question: Which “shrunken log2 fold change” value does the source give for RRIRDRPPRLPRPRPRPGSEPRP here?
Answer: 0.0708

Question: For RRIRDRPPRLPRPRPRPGTGPRP, which “shrunken log2 fold change” value is on record?
Answer: 0.304

Question: How did the “shrunken log2 fold change” value turn out when RRIRDRPPRLPRPRPRPGVEPRP was run?
Answer: 0.022

Question: Which “shrunken log2 fold change” value does the source give for RRIRDRPPRLPRPRPRPGVGPRP here?
Answer: 0.519

Question: For RRIRDRPPRLPRPRPRPGVQPRP, which “shrunken log2 fold change” value is on record?
Answer: -0.0372

Question: RRIRDRPPRLPRPRPRPGWTPRP was tested. Which “shrunken log2 fold change” value did it give?
Answer: 0.379

Question: Which “shrunken log2 fold change” value does the source give for RRIRDRPPRLPRPRPRPGWWPRP here?
Answer: 0.227

Question: Which “shrunken log2 fold change” value does the source give for RRIRDRPPRLPRPRPRPGYYPRP here?
Answer: 0.117

Question: How did the “shrunken log2 fold change” value turn out when RRIRDRPPRLPRPRPRPHDNPRP was run?
Answer: -0.323

Question: Which “shrunken log2 fold change” value does the source give for RRIRDRPPRLPRPRPRPHDTPRP here?
Answer: -0.123

Question: RRIRDRPPRLPRPRPRPHFIPRP was tested. Which “shrunken log2 fold change” value did it give?
Answer: -0.0922

Question: With RRIRDRPPRLPRPRPRPHGYPRP as the sequence, how does the “shrunken log2 fold change” value read?
Answer: 0.0237

Question: With RRIRDRPPRLPRPRPRPHHCPRP as the sequence, how does the “shrunken log2 fold change” value read?
Answer: -0.126

Question: With RRIRDRPPRLPRPRPRPHHSPRP as the sequence, how does the “shrunken log2 fold change” value read?
Answer: -1.11

Question: With RRIRDRPPRLPRPRPRPHHYPRP as the sequence, how does the “shrunken log2 fold change” value read?
Answer: -0.0954

Question: How did the “shrunken log2 fold change” value turn out when RRIRDRPPRLPRPRPRPHIHPRP was run?
Answer: -0.342

Question: How did the “shrunken log2 fold change” value turn out when RRIRDRPPRLPRPRPRPHKRPRP was run?
Answer: -0.0521

Question: With RRIRDRPPRLPRPRPRPHLDPRP as the sequence, how does the “shrunken log2 fold change” value read?
Answer: -0.131

Question: For RRIRDRPPRLPRPRPRPHNEPRP, which “shrunken log2 fold change” value is on record?
Answer: -0.701

Question: RRIRDRPPRLPRPRPRPHPFPRP was tested. Which “shrunken log2 fold change” value did it give?
Answer: 0.0528

Question: RRIRDRPPRLPRPRPRPHPLPRP was tested. Which “shrunken log2 fold change” value did it give?
Answer: -0.216

Question: Which “shrunken log2 fold change” value does the source give for RRIRDRPPRLPRPRPRPHPQPRP here?
Answer: 0.256

Question: Which “shrunken log2 fold change” value does the source give for RRIRDRPPRLPRPRPRPHQWPRP here?
Answer: 0.031

Question: For RRIRDRPPRLPRPRPRPHRMPRP, which “shrunken log2 fold change” value is on record?
Answer: 0.0707

Question: With RRIRDRPPRLPRPRPRPHRVPRP as the sequence, how does the “shrunken log2 fold change” value read?
Answer: -0.0141

Question: For RRIRDRPPRLPRPRPRPHSCPRP, which “shrunken log2 fold change” value is on record?
Answer: -0.00804

Question: For RRIRDRPPRLPRPRPRPHTDPRP, which “shrunken log2 fold change” value is on record?
Answer: -0.623

Question: RRIRDRPPRLPRPRPRPHVMPRP was tested. Which “shrunken log2 fold change” value did it give?
Answer: -0.0796

Question: Which “shrunken log2 fold change” value does the source give for RRIRDRPPRLPRPRPRPHWAPRP here?
Answer: -0.00226

Question: Which “shrunken log2 fold change” value does the source give for RRIRDRPPRLPRPRPRPHWGPRP here?
Answer: 0.00196

Question: RRIRDRPPRLPRPRPRPHYWPRP was tested. Which “shrunken log2 fold change” value did it give?
Answer: -0.282

Question: With RRIRDRPPRLPRPRPRPIANPRP as the sequence, how does the “shrunken log2 fold change” value read?
Answer: 0.274

Question: With RRIRDRPPRLPRPRPRPICMPRP as the sequence, how does the “shrunken log2 fold change” value read?
Answer: -0.00256

Question: How did the “shrunken log2 fold change” value turn out when RRIRDRPPRLPRPRPRPIDTPRP was run?
Answer: -0.3

Question: For RRIRDRPPRLPRPRPRPIFCPRP, which “shrunken log2 fold change” value is on record?
Answer: -0.0484

Question: For RRIRDRPPRLPRPRPRPIFNPRP, which “shrunken log2 fold change” value is on record?
Answer: -0.239

Question: With RRIRDRPPRLPRPRPRPIFWPRP as the sequence, how does the “shrunken log2 fold change” value read?
Answer: 0.0145

Question: RRIRDRPPRLPRPRPRPIFYPRP was tested. Which “shrunken log2 fold change” value did it give?
Answer: 0.0295

Question: With RRIRDRPPRLPRPRPRPIGSPRP as the sequence, how does the “shrunken log2 fold change” value read?
Answer: -0.693

Question: For RRIRDRPPRLPRPRPRPIIAPRP, which “shrunken log2 fold change” value is on record?
Answer: 0.0706

Question: Which “shrunken log2 fold change” value does the source give for RRIRDRPPRLPRPRPRPIKHPRP here?
Answer: -0.373

Question: For RRIRDRPPRLPRPRPRPIKMPRP, which “shrunken log2 fold change” value is on record?
Answer: 0.0713

Question: For RRIRDRPPRLPRPRPRPIMEPRP, which “shrunken log2 fold change” value is on record?
Answer: 0.594

Question: For RRIRDRPPRLPRPRPRPIPQPRP, which “shrunken log2 fold change” value is on record?
Answer: -0.0127

Question: For RRIRDRPPRLPRPRPRPIPVPRP, which “shrunken log2 fold change” value is on record?
Answer: -0.00774

Question: Which “shrunken log2 fold change” value does the source give for RRIRDRPPRLPRPRPRPIQLPRP here?
Answer: 0.0401

Question: How did the “shrunken log2 fold change” value turn out when RRIRDRPPRLPRPRPRPIRSPRP was run?
Answer: -0.00822

Question: With RRIRDRPPRLPRPRPRPISPPRP as the sequence, how does the “shrunken log2 fold change” value read?
Answer: -0.036

Question: RRIRDRPPRLPRPRPRPITCPRP was tested. Which “shrunken log2 fold change” value did it give?
Answer: -0.403

Question: How did the “shrunken log2 fold change” value turn out when RRIRDRPPRLPRPRPRPITIPRP was run?
Answer: -0.175

Question: Which “shrunken log2 fold change” value does the source give for RRIRDRPPRLPRPRPRPITMPRP here?
Answer: 0.111

Question: With RRIRDRPPRLPRPRPRPIVNPRP as the sequence, how does the “shrunken log2 fold change” value read?
Answer: -0.0751

Question: With RRIRDRPPRLPRPRPRPIVPPRP as the sequence, how does the “shrunken log2 fold change” value read?
Answer: -0.142

Question: RRIRDRPPRLPRPRPRPKDEPRP was tested. Which “shrunken log2 fold change” value did it give?
Answer: 0.0229

Question: How did the “shrunken log2 fold change” value turn out when RRIRDRPPRLPRPRPRPKDPPRP was run?
Answer: -0.00415

Question: With RRIRDRPPRLPRPRPRPKDYPRP as the sequence, how does the “shrunken log2 fold change” value read?
Answer: -0.192

Question: With RRIRDRPPRLPRPRPRPKGCPRP as the sequence, how does the “shrunken log2 fold change” value read?
Answer: 0.0262

Question: Which “shrunken log2 fold change” value does the source give for RRIRDRPPRLPRPRPRPKGMPRP here?
Answer: -0.00453

Question: With RRIRDRPPRLPRPRPRPKHCPRP as the sequence, how does the “shrunken log2 fold change” value read?
Answer: 0.0694

Question: RRIRDRPPRLPRPRPRPKKIPRP was tested. Which “shrunken log2 fold change” value did it give?
Answer: 0.0726

Question: RRIRDRPPRLPRPRPRPKKQPRP was tested. Which “shrunken log2 fold change” value did it give?
Answer: 0.187

Question: How did the “shrunken log2 fold change” value turn out when RRIRDRPPRLPRPRPRPKKVPRP was run?
Answer: 0.241

Question: How did the “shrunken log2 fold change” value turn out when RRIRDRPPRLPRPRPRPKPCPRP was run?
Answer: 0.0155

Question: For RRIRDRPPRLPRPRPRPKPDPRP, which “shrunken log2 fold change” value is on record?
Answer: 0.306

Question: Which “shrunken log2 fold change” value does the source give for RRIRDRPPRLPRPRPRPKPHPRP here?
Answer: 0.305
